± gives the uncertainty stated by the source.
Test: self-splicing fitness, log relative to wild type (ln ratio); higher = more splicing; Tetrahymena group I intron in knt gene, E. coli kanamycin selection, DiMSum; sequences stand for … in CUCUCU…GGAGGGAAAAGUUAUCAGGCAUGCACCUGGUAGCUAGUCUUUAAACCAAUAGAUUGCAUCGGUUUAAAAGGCAAGACCGUCAAAUUGCGGGAAAGGGGUCAACAGCCGUUCAGUACCAAGUCUCAGGGGAAACUUUGAGAUGGCCUUGCAAAGGGUAUGGUAAUAAGCUGACGGACAUGGUCCUAACCACGCAGCCAAGUCCUAAGUCAACAGAUCUUCUGUUGAUAUGGAUGCAGUUCACAGACUAAAUGUCGGUCGGGGAAGAUGUAUUCUUCUCAUAAGAUAUAGUCGGACCUCUCCUUAAUGGGAGCUAGCGGAUGAAGUGAUGCAACACUGGAGCCGCUGGGAACUAAUUUGUAUGCGAAAGUAUAUUGAUUAGUUUUGGAGUACUCGUGGUCG
Outline: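 The eight P1ex-region nucleotides of an intron in the knt kanamycin-resistance gene on pET-22b(+) were all randomised and the library put into E. coli BL21(DE3). Six replicate transformations were grown overnight at 37°C or 30°C on LB agar with or without 25 μg/mL kanamycin, together with 100 μg/mL carbenicillin, 50 μM IPTG and 0.2% rhamnose. Colonies were pooled and amplicon-sequenced on an Illumina HiSeq 2500. Fitness from DiMSum is the error-weighted combination of wild-type-normalised replicate fold changes, kanamycin over none.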

ACAUAGCAAUAUUACGGCGC
self-splicing fitness (ln) (30 °C): -1.1 ± 0.083 | self-splicing fitness (ln) (37 °C): -0.521 ± 0.11

ACAUAGCAAUAUUACGGCUG
self-splicing fitness (ln) (30 °C): -0.175 ± 0.067 | self-splicing fitness (ln) (37 °C): -0.366 ± 0.095

ACAUAGCAAUAUUACGGGAG
self-splicing fitness (ln) (30 °C): -2.13 ± 0.11 | self-splicing fitness (ln) (37 °C): -1.52 ± 0.11

ACAUAGCAAUAUUACGGGCC
self-splicing fitness (ln) (37 °C): -1.59 ± 0.2

ACAUAGCAAUAUUACGGGUG
self-splicing fitness (ln) (30 °C): -1.25 ± 0.046 | self-splicing fitness (ln) (37 °C): -0.515 ± 0.064

ACAUAGCAAUAUUACGUACU
self-splicing fitness (ln) (30 °C): -0.24 ± 0.077 | self-splicing fitness (ln) (37 °C): 0.46 ± 0.12

ACAUAGCAAUAUUACGUAUC
self-splicing fitness (ln) (30 °C): -3.37 ± 0.19 | self-splicing fitness (ln) (37 °C): -1.62 ± 0.2

ACAUAGCAAUAUUACGUCAU
self-splicing fitness (ln) (30 °C): -3.16 ± 0.1 | self-splicing fitness (ln) (37 °C): -2.35 ± 0.13

ACAUAGCAAUAUUACGUCUU
self-splicing fitness (ln) (30 °C): -1.33 ± 0.077 | self-splicing fitness (ln) (37 °C): -0.302 ± 0.084

ACAUAGCAAUAUUACGUGAC
self-splicing fitness (ln) (30 °C): -3.15 ± 0.15 | self-splicing fitness (ln) (37 °C): -2.16 ± 0.15

ACAUAGCAAUAUUACGUUAG
self-splicing fitness (ln) (30 °C): -3.66 ± 0.17 | self-splicing fitness (ln) (37 °C): -1.66 ± 0.14

ACAUAGCAAUAUUACGUUCG
self-splicing fitness (ln) (30 °C): -1.04 ± 0.075 | self-splicing fitness (ln) (37 °C): -0.65 ± 0.1

ACAUAGCAAUAUUACGUUUU
self-splicing fitness (ln) (30 °C): -3.76 ± 0.16 | self-splicing fitness (ln) (37 °C): -2.59 ± 0.17

ACCAAGCAAUAUUACGAAAC
self-splicing fitness (ln) (30 °C): -4.33 ± 0.34 | self-splicing fitness (ln) (37 °C): -1.71 ± 0.25

ACCAAGCAAUAUUACGAAGG
self-splicing fitness (ln) (30 °C): -2.34 ± 0.12 | self-splicing fitness (ln) (37 °C): -1.09 ± 0.14

ACCAAGCAAUAUUACGACUA
self-splicing fitness (ln) (30 °C): -0.894 ± 0.099 | self-splicing fitness (ln) (37 °C): -0.585 ± 0.093

ACCAAGCAAUAUUACGAUGC
self-splicing fitness (ln) (30 °C): -2.45 ± 0.088 | self-splicing fitness (ln) (37 °C): -0.944 ± 0.11

ACCAAGCAAUAUUACGCAAC
self-splicing fitness (ln) (30 °C): -3.4 ± 0.38 | self-splicing fitness (ln) (37 °C): -1.01 ± 0.17

ACCAAGCAAUAUUACGCACC
self-splicing fitness (ln) (30 °C): -0.532 ± 0.078 | self-splicing fitness (ln) (37 °C): -0.199 ± 0.11

ACCAAGCAAUAUUACGCACU
self-splicing fitness (ln) (30 °C): -0.396 ± 0.07 | self-splicing fitness (ln) (37 °C): 0.498 ± 0.085

ACCAAGCAAUAUUACGCCUU
self-splicing fitness (ln) (30 °C): -2.87 ± 0.15 | self-splicing fitness (ln) (37 °C): -1.97 ± 0.15

ACCAAGCAAUAUUACGCGAA
self-splicing fitness (ln) (30 °C): -3.09 ± 0.13 | self-splicing fitness (ln) (37 °C): -1.65 ± 0.1

ACCAAGCAAUAUUACGCGAU
self-splicing fitness (ln) (30 °C): -2.1 ± 0.079 | self-splicing fitness (ln) (37 °C): -1.17 ± 0.11

ACCAAGCAAUAUUACGCGGG
self-splicing fitness (ln) (30 °C): -3.38 ± 0.11 | self-splicing fitness (ln) (37 °C): -2.18 ± 0.1

ACCAAGCAAUAUUACGCUAU
self-splicing fitness (ln) (30 °C): -1.66 ± 0.087 | self-splicing fitness (ln) (37 °C): -0.775 ± 0.098

ACCAAGCAAUAUUACGCUCU
self-splicing fitness (ln) (30 °C): -0.714 ± 0.06 | self-splicing fitness (ln) (37 °C): -0.02 ± 0.073

ACCAAGCAAUAUUACGGAUC
self-splicing fitness (ln) (30 °C): -3.49 ± 0.14 | self-splicing fitness (ln) (37 °C): -1.28 ± 0.1

ACCAAGCAAUAUUACGGCAG
self-splicing fitness (ln) (30 °C): -3.19 ± 0.16 | self-splicing fitness (ln) (37 °C): -1.9 ± 0.17

ACCAAGCAAUAUUACGGGAA
self-splicing fitness (ln) (30 °C): -2.85 ± 0.13 | self-splicing fitness (ln) (37 °C): -2.19 ± 0.1

ACCAAGCAAUAUUACGGUCU
self-splicing fitness (ln) (30 °C): -2.13 ± 0.08 | self-splicing fitness (ln) (37 °C): -0.69 ± 0.066

ACCAAGCAAUAUUACGUAAU
self-splicing fitness (ln) (30 °C): -2.74 ± 0.098 | self-splicing fitness (ln) (37 °C): -0.681 ± 0.078

ACCAAGCAAUAUUACGUCGA
self-splicing fitness (ln) (30 °C): -2.16 ± 0.12 | self-splicing fitness (ln) (37 °C): -1.83 ± 0.1

ACCAAGCAAUAUUACGUGCG
self-splicing fitness (ln) (30 °C): -1.03 ± 0.052 | self-splicing fitness (ln) (37 °C): -0.972 ± 0.069

ACCAAGCAAUAUUACGUGUA
self-splicing fitness (ln) (30 °C): -2.28 ± 0.09 | self-splicing fitness (ln) (37 °C): -1.37 ± 0.096

ACCAAGCAAUAUUACGUUAC
self-splicing fitness (ln) (30 °C): -3.66 ± 0.2 | self-splicing fitness (ln) (37 °C): -1.76 ± 0.14

ACCAAGCAAUAUUACGUUCA
self-splicing fitness (ln) (30 °C): -1.65 ± 0.11 | self-splicing fitness (ln) (37 °C): -1.18 ± 0.1

ACCAAGCAAUAUUACGUUGC
self-splicing fitness (ln) (30 °C): -2.65 ± 0.086 | self-splicing fitness (ln) (37 °C): -0.992 ± 0.075
